The values that follow come from patent publication US20230056486.

Values joined by “and” are separate entries in the source; they are usually repeats but may differ in a detail not shown here. Equal entries are not always repeated.

For the series, the target named is T1, (GR)10 dipeptide repeat peptide.
T1 chain: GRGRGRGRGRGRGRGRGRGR

B1: Proteinase K (protein)
chain: AAQTNAPWGLARISSTSPGTSTYYYDESAGQGSCVYVIDTGIEASHPEFEGRAQMVKTYYYSSRDGNGHGTHCAGTVGSRTYGVAKKTQLFGVKVLDDNGSGQYSTIIAGMDFVASDKNNRNCPKGVVASLSLGGGYSSSVNSAAARLQSSGVMVAVAAGNNNADARNYSPASEPSVCTVGASDRYDRRSSFSNYGSVLDIFGPGTSILSTWIGGSTRSISGTSMATPHVAGLAAYLMTLGKTTAASACRYIADTANKGDLSNIPFGTVNLLAYNNYQA
With B1, the (GR)10 concentration left at 0 min (LC/MS; 50 µM start; TFA added before enzyme) was 44.9 µM and 49.4 µM; the (GR)10 concentration left at 2.5 min (LC/MS; 50 µM start) is 55.8 µM and 55.4 µM; the (GR)10 concentration left at 5 min (LC/MS; 50 µM start) was 54.4 µM and 48.8 µM; the (GR)10 concentration left at 10 min (LC/MS; 50 µM start) was 50.3 µM and 44.1 µM.

B2: clostripain (protein)
chain: NKNQKVTIMYYCDADNNLEGSLLNDIEEMKTGYKDSPNLNLIALVDRSPRYSSDEKVLGEDFSDTRLYKIEHNKANRLDGKNEFPEISTTSKYEANMGDPEVLKKFIDYCKSNYEADKYVLIMANHGGGAREKSNPRLNRAICWDDSNLDKNGEADCLYMGEISDHLTEKQSVDLLAFDACLMGTAEVAYQYRPGNGGFSADTLVASSPVVWGPGFKYDKIFDRIKAGGGTNNEDDLTLGGKEQNFDPATITNEQLGALFVEEQRDSTHANGRYDQHLSFYDLKKAESVKRAIDNLAVNLSNENKKSEIEKLRGSGIHTDLMHYFDEYSEGEWVEYPYFDVYDLCEKINKSENFSSKTKDLASNAMNKLNEMIVYSFGDPSNNFKEGKNGLSIFLPNGDKKYSTYYTSTKIPHWTMQSWYNSIDTVKYGLNPYGKLSWCKDGQDPEINKVGNWFELLDSWFDKTNDVTGGVNHYQW
Take B2: the (GR)10 concentration left at 0 min (LC/MS; 50 µM start; TFA added before enzyme) was 39.7 µM and 37.9 µM; the “(GR)10 concentration left at 30 min (LC/MS; 50 µM start)” value is given as “BLQ”; the “(GR)10 concentration left at 60 min (LC/MS; 50 µM start)” value is listed as “BLQ”; the “(GR)10 concentration left at 120 min (LC/MS; 50 µM start)” value is given as “BLQ”. For the same protein, the (GR)10 left in CSF; Clostripain + DTT-Immobilized-5 min reaction (LC/MS; 200 µM (GR)10 in human CSF) (normalized µM) turned out to be 58; the (GR)10 left in CSF; Clostripain + DTT-Immobilized-60 min reaction (LC/MS; 200 µM (GR)10 in human CSF) (normalized µM) is -0; the (GR)10 left in CSF; Clostripain-Immobilized-5 min reaction, no DTT (LC/MS; 200 µM (GR)10 in human CSF) (normalized µM) stood at 395; the (GR)10 left in CSF; Clostripain-Immobilized-60 min reaction, no DTT (LC/MS; 200 µM (GR)10 in human CSF) (normalized µM) is -0. Also, the (GR)10 left; Clostripain + DTT-Immobilized-5 min reaction (LC/MS) (µM (normalized to GR concentration)) was -0, the (GR)10 left; Clostripain + DTT-immobilized-60 min reaction (LC/MS) (µM (normalized to GR concentration)) was -0, the (GR)10 left; Clostripain + DTT-in solution-5 min reaction (LC/MS) (µM (normalized to GR concentration)) is 5.7 and the (GR)10 left; Clostripain + DTT-in solution-60 min reaction (LC/MS) (µM (normalized to GR concentration)) is -0. For the same protein, the (GR)10 left; Clostripain + DTT-resin wash from 5 min reaction (LC/MS) (µM (normalized to GR concentration)) was -0; the (GR)10 left; Clostripain + DTT-resin wash from 60 min reaction (LC/MS) (µM (normalized to GR concentration)) was -0; the (GR)10 left; Clostripain-Immobilized-5 min reaction, no DTT (LC/MS) amounted to 0 µM; the (GR)10 left; Clostripain-immobilized-60 min reaction, no DTT (LC/MS) stood at 0 µM. The same protein had a (GR)10 left; Clostripain-in solution-5 min reaction, no DTT (LC/MS) of 12.4 µM; a (GR)10 left; Clostripain-in solution-60 min reaction, no DTT (LC/MS) of 0 µM; a (GR)10 left; Clostripain-resin wash from 5 min reaction, no DTT (LC/MS) of 0 µM; a (GR)10 left; Clostripain-resin wash from 60 min reaction, no DTT (LC/MS) of 0 µM.
